Measured values published in FireProtDB (doi:10.1021/bi0525223).

B1: Protein P-30, P22069 (parent)
chain: QDWLTFQKKHITNTRDVDCDNIMSTNLFHCKDKNTFIYSRPEPVKAICKGIIASKNVLTTSEFYLSDCNVTSRPCKYKLKKSTNKFCVTCENQAPVHFVGVGSC

Variants of: B1
Details: Lithobates pipiens, pH 5.5, sodium acetate 100 mM, reversible: Yes, structure 1ONC, whole UniProt chain shown; for ddG of mutation (higher = less stable) / denaturant midpoint (higher = more stable): 20 °C, GdnHCl, Fluorescence; for Tm / change of melting temperature, mutant - wild type (higher = more stable): Thermal, DSC

Variant: C87A C104A
- ddG of mutation (higher = less stable): 7.65 kcal/mol
- denaturant midpoint (higher = more stable): 2.1 M
- Tm: 69.4 °C
- change of melting temperature, mutant - wild type (higher = more stable): -19.1 °C

Variant: F28T
- ddG of mutation (higher = less stable): 5.31 kcal/mol
- denaturant midpoint (higher = more stable): 2.8 M
- Tm: 77.4 °C
- change of melting temperature, mutant - wild type (higher = more stable): -11.1 °C

Variant: F28A
- ddG of mutation (higher = less stable): 5 kcal/mol
- denaturant midpoint (higher = more stable): 2.9 M
- Tm: 78.1 °C
- change of melting temperature, mutant - wild type (higher = more stable): -10.4 °C

Variant: F36Y
- ddG of mutation (higher = less stable): 4.66 kcal/mol
- denaturant midpoint (higher = more stable): 3 M
- Tm: 79.2 °C
- change of melting temperature, mutant - wild type (higher = more stable): -9.3 °C
